Results on three molecules are retold here after US20250121104A1 (FUSION PHARMACEUTICALS, published 2025).

Assay [1] deals with T1, EGFR and cMET co-expressed on the surface of tumour cell lines (HCC827, HT29, H441, H1975) (UniProt P00533 25-1210; P08581 25-1390).
T1 construct: whole, on cells; Target of the bispecific molecules on cells that carry both receptors; the cell line of each value stands under assay; also called EGFR and c-MET expressing cell line; EGFR and/or cMET expressing cell lines
Put plainly: saturation radioligand binding on HCC827 cells, 4 C, specific binding (4 µM cold antibody for non-specific), single-site fit. Here is the method: (§1) The purpose of this assay was to ensure that the radioimmunoconjugates maintained the binding characteristics of the native antibody in EGFR and/or cMET expressing cell lines including HT29, H441, HT29, HCC827, and H1975. One day prior to the experiment, cells (1.5-2×10⁵) were seeded in 48-well microplates in 500 μL supplemented medium. At the start of the assay, cells were washed with PBS once and then treated with increasing concentrations of Compound E (0.05 nM to 100 nM) in the absence and presence of 4 μM cold antibody [total binding (TB) and non-specific binding (NSB) respectively]. Plates were incubated at 4° C. for about 3 hours with mild shaking. Following incubation, the cells were washed twice with PBS and were then lysed with 1% Triton-X-100. The lysates were transferred to gamma counting tubes and run along with Compound E standards on the Wizard 1470 gamma counter to determine the amount of radioactivity in counts per minute (CPM) for each lysate. The remaining lysate from each well (25 μL) was used for analyzing the protein content using a standard protein quantification assay.

The target in assay [2] is T1, EGFR and cMET co-expressed on the …. The assay is described as follows: saturation radioligand binding on H441 cells, 4 C, specific binding (4 µM cold antibody for non-specific), single-site fit. Here is the method:
as §1

The target is the same in assay [3]. Put plainly: saturation radioligand binding on H1975 cells, 4 C, specific binding (4 µM cold antibody for non-specific), single-site fit. Here is the method:
as §1

For assay [4] the target is unchanged. Put plainly: saturation radioligand binding on HT29 cells, 4 C, specific binding (4 µM cold antibody for non-specific), single-site fit. As for the experimental part:
as §1

The target in assay [5] is T2, human cMET (recombinant, soluble monomeric) (human, UniProt P08581 25-932).
T2 construct: also called cMET antigen; His-tagged cMET antigen
T2 sequence (P08581 25-932): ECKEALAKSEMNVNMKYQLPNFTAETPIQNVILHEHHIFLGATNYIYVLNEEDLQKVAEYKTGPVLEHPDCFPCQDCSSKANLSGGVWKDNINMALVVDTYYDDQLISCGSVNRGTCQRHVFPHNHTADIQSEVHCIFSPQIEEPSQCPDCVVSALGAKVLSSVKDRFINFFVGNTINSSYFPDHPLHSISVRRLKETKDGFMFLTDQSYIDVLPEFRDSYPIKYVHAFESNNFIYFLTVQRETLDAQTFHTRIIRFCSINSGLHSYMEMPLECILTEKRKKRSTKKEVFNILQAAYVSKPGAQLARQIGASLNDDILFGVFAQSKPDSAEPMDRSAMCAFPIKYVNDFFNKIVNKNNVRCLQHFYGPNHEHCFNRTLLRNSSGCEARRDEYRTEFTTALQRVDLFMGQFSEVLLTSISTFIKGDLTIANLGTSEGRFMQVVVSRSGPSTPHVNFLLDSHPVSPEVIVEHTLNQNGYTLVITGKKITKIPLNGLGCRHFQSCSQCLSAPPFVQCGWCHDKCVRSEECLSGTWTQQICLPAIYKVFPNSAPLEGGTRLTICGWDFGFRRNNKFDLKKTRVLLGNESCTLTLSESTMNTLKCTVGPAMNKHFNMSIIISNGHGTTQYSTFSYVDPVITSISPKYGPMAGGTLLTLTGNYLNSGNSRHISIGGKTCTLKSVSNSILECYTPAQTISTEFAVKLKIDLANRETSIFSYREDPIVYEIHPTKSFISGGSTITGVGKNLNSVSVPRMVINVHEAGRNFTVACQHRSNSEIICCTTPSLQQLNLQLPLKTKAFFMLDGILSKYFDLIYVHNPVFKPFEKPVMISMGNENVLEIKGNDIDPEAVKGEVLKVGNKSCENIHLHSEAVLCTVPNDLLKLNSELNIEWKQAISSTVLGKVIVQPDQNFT
Put plainly: SPR (BIAcore T200), antibody captured on anti-human IgG, soluble antigen as analyte.

The target of assay [6] is T3, cynomolgus monkey cMET (recombinant, soluble monomeric) (cynomolgus monkey, UniProt A0M8R7 25-932 (Papio anubis entry)).
T3 construct: also called cyno cMET
T3 sequence (A0M8R7 25-932 S170N/I621T): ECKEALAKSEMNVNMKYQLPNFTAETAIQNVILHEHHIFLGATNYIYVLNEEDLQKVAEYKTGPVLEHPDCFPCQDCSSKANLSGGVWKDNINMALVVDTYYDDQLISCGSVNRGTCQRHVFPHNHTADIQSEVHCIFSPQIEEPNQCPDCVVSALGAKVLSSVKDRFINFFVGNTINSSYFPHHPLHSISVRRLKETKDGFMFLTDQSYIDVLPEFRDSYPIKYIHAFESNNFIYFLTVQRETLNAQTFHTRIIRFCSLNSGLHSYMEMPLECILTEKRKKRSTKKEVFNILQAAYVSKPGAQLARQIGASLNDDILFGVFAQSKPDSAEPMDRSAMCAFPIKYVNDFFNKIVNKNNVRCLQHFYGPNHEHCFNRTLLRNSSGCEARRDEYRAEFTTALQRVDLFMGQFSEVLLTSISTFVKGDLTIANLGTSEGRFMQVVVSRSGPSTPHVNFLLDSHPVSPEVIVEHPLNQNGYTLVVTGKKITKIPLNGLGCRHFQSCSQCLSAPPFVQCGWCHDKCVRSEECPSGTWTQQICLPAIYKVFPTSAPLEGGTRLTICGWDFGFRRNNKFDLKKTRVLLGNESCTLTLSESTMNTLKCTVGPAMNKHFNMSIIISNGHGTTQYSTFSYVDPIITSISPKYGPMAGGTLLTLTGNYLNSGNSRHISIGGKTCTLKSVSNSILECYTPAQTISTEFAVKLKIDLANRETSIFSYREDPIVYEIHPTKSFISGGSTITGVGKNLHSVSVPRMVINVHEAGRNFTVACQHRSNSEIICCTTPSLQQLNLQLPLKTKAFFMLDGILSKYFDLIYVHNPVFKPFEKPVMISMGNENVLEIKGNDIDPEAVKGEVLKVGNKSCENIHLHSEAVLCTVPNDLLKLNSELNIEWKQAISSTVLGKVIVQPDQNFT
The assay is described as above.

A further assay concerns the target mouse cMET (recombinant) (mouse, UniProt P16056 25-929, limits assumed). The description is as above.
The target in the next assay is T4, Semaphorin 3a (UniProt Q14563 21-771, limits assumed).
T4 sequence (looked up): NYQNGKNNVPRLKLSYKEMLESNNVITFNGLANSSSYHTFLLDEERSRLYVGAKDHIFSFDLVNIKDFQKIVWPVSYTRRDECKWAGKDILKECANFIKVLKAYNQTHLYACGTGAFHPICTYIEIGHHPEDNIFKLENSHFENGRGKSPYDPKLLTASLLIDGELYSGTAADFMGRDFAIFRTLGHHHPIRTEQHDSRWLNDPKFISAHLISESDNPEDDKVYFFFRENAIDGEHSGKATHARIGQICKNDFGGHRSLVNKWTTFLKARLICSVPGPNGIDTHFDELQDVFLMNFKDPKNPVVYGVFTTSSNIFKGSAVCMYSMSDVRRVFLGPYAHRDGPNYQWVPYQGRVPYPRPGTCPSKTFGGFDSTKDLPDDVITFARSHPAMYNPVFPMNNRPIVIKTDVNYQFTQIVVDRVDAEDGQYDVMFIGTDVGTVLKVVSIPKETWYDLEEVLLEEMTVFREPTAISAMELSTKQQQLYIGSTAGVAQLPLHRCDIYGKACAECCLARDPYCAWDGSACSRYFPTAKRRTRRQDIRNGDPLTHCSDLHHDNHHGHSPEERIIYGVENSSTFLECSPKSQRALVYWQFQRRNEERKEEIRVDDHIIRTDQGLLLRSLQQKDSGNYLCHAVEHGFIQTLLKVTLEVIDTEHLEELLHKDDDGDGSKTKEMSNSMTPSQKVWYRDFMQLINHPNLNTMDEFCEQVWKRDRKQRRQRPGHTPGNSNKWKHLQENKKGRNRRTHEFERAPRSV
Put plainly: ELISA, antigen coated at 1 µg/mL, antibody titrated from 10 µg/mL. As for the experimental part:
(§2) Specificity for EGFR and cMET species paralogs and closely related family members was determined by ELISA. Briefly, antigen solutions were prepared in PBS at 1 μg/mL and 50 microliters was coated onto half area ELISA assay plates. Plates were washed and blocked with 1% BSA in PBS containing 0.005% Tween-20 (PBS-T) for one hour at room temperature. […] Wells were incubated with 50 microliters of the indicated primary antibodies diluted in PBS-T in a 1:3 dilution series, starting at 10 μg/mL and ending at 0.002 μg/mL, except for the HER4 binding mAb control, MAB1131, for which the series started at 1 μg/mL. The wells were washed 4 times in PBS-T, then 50 μl of goat anti-human Fab HRP-labeled secondary antibody, diluted 1:5000 in PBS-T, was added to each well and incubated for one hour at room temperature. […] 50 microliters of TMB stop solution was added to all wells and the absorbance was read at 450 nm on a SpectraMax M5 microplate reader. Data were analyzed in the SoftMax Pro 5 software and plotted using GraphPad Prism 7 graphing software.
(§3) To determine the species cross reactivity, ELISA assays were carried out as described above.
For orientation: An ELISA detects its analyte on a solid surface through an enzyme-linked reagent.

A further assay concerns the target T5, Ron (CD136) (UniProt Q04912 25-957, limits assumed).
T5 sequence (looked up): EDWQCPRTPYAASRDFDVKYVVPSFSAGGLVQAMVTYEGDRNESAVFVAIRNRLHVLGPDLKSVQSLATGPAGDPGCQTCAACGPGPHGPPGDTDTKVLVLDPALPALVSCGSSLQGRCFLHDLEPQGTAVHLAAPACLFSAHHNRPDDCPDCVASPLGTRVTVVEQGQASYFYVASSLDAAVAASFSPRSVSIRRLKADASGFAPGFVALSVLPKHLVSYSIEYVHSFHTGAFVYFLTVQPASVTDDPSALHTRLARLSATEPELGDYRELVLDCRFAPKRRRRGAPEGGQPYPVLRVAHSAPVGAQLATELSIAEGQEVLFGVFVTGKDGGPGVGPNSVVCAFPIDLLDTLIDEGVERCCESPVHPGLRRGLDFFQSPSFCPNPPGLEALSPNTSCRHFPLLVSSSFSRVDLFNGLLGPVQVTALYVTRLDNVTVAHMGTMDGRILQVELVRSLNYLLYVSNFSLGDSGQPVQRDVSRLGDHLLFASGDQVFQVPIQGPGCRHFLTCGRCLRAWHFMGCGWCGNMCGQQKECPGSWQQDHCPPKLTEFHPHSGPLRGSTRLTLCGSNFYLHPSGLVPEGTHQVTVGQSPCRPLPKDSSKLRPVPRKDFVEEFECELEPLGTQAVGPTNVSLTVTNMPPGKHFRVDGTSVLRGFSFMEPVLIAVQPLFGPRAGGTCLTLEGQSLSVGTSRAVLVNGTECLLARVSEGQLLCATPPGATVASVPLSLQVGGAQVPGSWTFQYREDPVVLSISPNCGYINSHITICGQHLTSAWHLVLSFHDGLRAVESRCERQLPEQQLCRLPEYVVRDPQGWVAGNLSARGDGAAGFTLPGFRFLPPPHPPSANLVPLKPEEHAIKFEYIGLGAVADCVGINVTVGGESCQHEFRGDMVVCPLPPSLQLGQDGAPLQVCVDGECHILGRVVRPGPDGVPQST
The description is as above. As for the experimental part: as §2, §3

In assay [7] the target is T6, cynomolgus monkey EGFR (recombinant, soluble monomeric) (cynomolgus monkey, UniProt P55245 25-645 (rhesus entry)).
T6 construct: also called cyno EGFR
The assay is described as follows: SPR (BIAcore T200), antibody captured on anti-human IgG, soluble antigen as analyte.

The next assay concerns the target T7, mouse EGFR (recombinant) (mouse, UniProt Q01279 25-647).
T7 construct: also called murine EGFR
Described as above.

For assay [8], the target named is T8, human EGFR (recombinant, soluble monomeric) (human, UniProt P00533 25-645).
T8 construct: also called EGFR antigen
Described as above.

Chain of mouse cMET (recombinant) (P16056 25-929 limits assumed): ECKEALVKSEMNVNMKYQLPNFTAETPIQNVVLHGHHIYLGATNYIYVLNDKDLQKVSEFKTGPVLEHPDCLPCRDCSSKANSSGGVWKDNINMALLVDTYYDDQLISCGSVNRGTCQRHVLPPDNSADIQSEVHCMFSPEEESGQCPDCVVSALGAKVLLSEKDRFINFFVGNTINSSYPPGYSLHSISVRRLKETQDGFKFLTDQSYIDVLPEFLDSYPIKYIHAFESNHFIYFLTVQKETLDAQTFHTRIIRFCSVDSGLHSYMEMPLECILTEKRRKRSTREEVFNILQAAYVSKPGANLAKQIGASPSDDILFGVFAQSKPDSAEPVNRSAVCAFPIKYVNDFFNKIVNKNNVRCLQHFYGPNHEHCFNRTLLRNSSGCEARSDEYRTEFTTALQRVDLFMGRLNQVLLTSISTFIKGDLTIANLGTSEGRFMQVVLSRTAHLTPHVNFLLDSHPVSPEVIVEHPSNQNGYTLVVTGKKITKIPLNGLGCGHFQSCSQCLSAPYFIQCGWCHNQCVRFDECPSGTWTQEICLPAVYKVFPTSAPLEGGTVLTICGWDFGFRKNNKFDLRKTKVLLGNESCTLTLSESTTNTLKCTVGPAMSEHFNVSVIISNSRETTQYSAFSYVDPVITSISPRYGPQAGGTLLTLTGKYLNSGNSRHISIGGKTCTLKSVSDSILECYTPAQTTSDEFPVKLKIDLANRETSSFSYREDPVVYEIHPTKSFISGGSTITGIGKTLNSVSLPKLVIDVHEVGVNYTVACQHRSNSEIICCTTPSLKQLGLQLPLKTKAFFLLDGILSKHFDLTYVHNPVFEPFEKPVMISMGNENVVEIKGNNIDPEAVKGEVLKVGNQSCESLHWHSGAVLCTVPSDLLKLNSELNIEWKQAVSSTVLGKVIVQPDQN

B1: Compound E, [177Lu]-Compound C-anti-EGFR-cMET conjugate (bispecific antibody, V domains shown)
VH 1: QVQLVQSGAEVKKPGSSVKVSCKASGGTFSDNDFSWVRQAPGQGLEWMGAIVAVFRTETYAQKFQDRVKITADISTRTTYMELSSLRSEDTAVYYCARRLMSAISGPGAPLLMWGQGTLVTVSS
VL 1: QSALTQPRSVSGSPGQSVTISCTGTSSDVGGYNYVSWYQQHPGKAPKLMIYDVSKRPSGVPDRFSGSKSGNTASLTISGLQAEDEADYYCSSYTSSDTLEIFGGGTKLTVL
VH 2: QVQLVQSGAEVKKPGASVKVSCKASGYTFTDYYIHWVRQATGQGLEWMGWMNPNSGNTGYAQKFQGRVTMTRDTSISTAYMELSSLRSEDTAVYYCARGQGYTHSWGQGTMVTVSS
VL 2: DIQMTQSPSTLSASVGDRVTITCRASEGIYHWLAWYQQKPGKAPKLLIYKASSLASGVPSRFSGSGSGTEFTLTISSLQPDDFATYYCQQYSNYPPTFGGGTKLEIK
modifications: 177Lu-DOTA chelate-linker (Compound C) on lysine side chains, sites not stated; 177Lu-DOTA chelate-linker (Compound C) on lysine side chains, sites not stated; chelate-to-antibody ratio 5.3 for the whole antibody
notes: also called [177Lu]-DOTA-anti-EGFR-cMET
For orientation: Kd means the concentration at which binding is half-saturated. Regarding B1, the Kd in [1] was approximately 9.9 nM; in assay [2], approximately 15.5 nM; in [3], approximately 6 nM; in assay [4], approximately 5.7 nM.

B2: RAA22 IgG (antibody, V domains shown)
VH: QVQLVQSGAEVKKPGSSVKVSCKASGGTFSDNDFSWVRQAPGQGLEWMGAIVAVFRTETYAQKFQDRVKITADISTRTTYMELSSLRSEDTAVYYCARRLMSAISGPGAPLLMWGQGTLVTVSS
VL: QSALTQPRSVSGSPGQSVTISCTGTSSDVGGYNYVSWYQQHPGKAPKLMIYDVSKRPSGVPDRFSGSKSGNTASLTISGLQAEDEADYYCSSYTSSDTLEIFGGGTKLTVL
notes: also called anti-EGFR antibody clone RAA22
With B2, the binding result is on record as “no binding (tested: 200 nM)” in [5]; “no binding (tested: 200 nM)” in assay [6]; “no binding (tested: 200 nM)” with mouse cMET (recombinant); “no binding (tested: 10 µg/mL)” in the assay with Semaphorin 3a; “no binding (tested: 10 µg/mL)” in the assay with Ron (CD136).

B3: B09-57 IgG (antibody, V domains shown)
VH: QVQLVQSGAEVKKPGASVKVSCKASGYTFTDYYIHWVRQATGQGLEWMGWMNPNSGNTGYAQKFQGRVTMTRDTSISTAYMELSSLRSEDTAVYYCARGQGYTHSWGQGTMVTVSS
VL: DIQMTQSPSTLSASVGDRVTITCRASEGIYHWLAWYQQKPGKAPKLLIYKASSLASGVPSRFSGSGSGTEFTLTISSLQPDDFATYYCQQYSNYPPTFGGGTKLEIK
notes: also called B09-GL; anti-cMET antibody
Turning to B3, the binding result is listed as “no binding (tested: 200 nM)” in [7]; “no binding (tested: 200 nM)” in the assay with mouse EGFR (recombinant); “no binding (tested: 200 nM)” in assay [8]; “no binding (tested: 200 nM)” with mouse cMET (recombinant); “no binding (tested: 10 µg/mL)” with Semaphorin 3a; “no binding (tested: 10 µg/mL)” with Ron (CD136).
